# Reference: patent publication US20090099029A1, “Methods and substrates for conducting assays” (Invitrogen Corporation, priority 2005, published 2009)
# Tested on: kinases of Table 6 on Myelin Basic Protein (MBP)
# Assay: Kinase assay using MBP substrate, ProQ Diamond stain (Table 6)
# Assay type: biochemical
# Details: kinase printed on MBP-coated slide; 20 uM ATP, 30° C.; ProQ Diamond Microarray Stain; graded Strong/Weak/Negative
# Description: In this illustrative example, four-well slides were designed with a hydrophobic mask surrounding 4-wells of aldehyde- or epoxy-coated glass (smooth or ES grade; Erie Scientific (Portsmouth, N.H.)). […] Bovine, dephosphorylated, Myelin Basic Protein (MBP) was purchased from Upstate Biotechnology (#13-110). MBP was diluted to 1 mg/ml in PBS, applied to the slide surface, covered with a coverslip, and left overnight at 4° C. to coat the slide with the MBP. Slides were washed 3 times with water and spun dry before printing.
# Kinases were purchased from Panvera (Invitrogen, Carlsbad, Calif.), diluted in printing buffer (50 mM Tris pH 7.5, 25% glyercol, 0.05% TritonX-100, 2 mM DTT) and deposited using a GeneMachine OmniGrid100. Slides were stored at −20° C.
# Reactions were performed following removal of the slide from the freezer. Reaction buffer (20 mM HEPES pH 7.5, 4 mM MgCl2, 2 mM DTT, 20 uM ATP, 5% DMSO) was added with or without inhibitor, a coverslip applied, and the slide placed at 30° C. for the appropriate reaction time. The slide was washed with water to stop the reaction (3 times) and spun dry. ProQ Diamond Microarray Stain (Invitrogen #P33706) was applied, covered with a coverslip, and the slide was incubated in the dark at room temperature for 30 minutes. The slide was destained and washed three times with water, and spun dry.
row,Compound,MBP Kinase Activity
1,ABL1,Weak
2,ADRBK1(GRK2),Negative
3,AKT1,Strong
4,BLK,Weak
5,CDK5/p35,Strong
6,CHEK2,Strong
7,CLK1,Strong
8,CLK3,Strong
9,CLK4,Negative
10,CSNK1E(CK1eps),Negative
11,CSNK1G1(CK1gamma1),Negative
12,CSNK1G2,Negative
13,CSNK1G3,Weak
14,CSNK2A1(CK2alpha1),Strong
15,EPHA7,Weak
16,ERBB2,Negative
17,FGFR1,Strong
18,FGR,Weak
19,FYN,Strong
20,GRK5,Negative
21,GSK3B,Negative

row,Compound,MBP Kinase Activity
1,HCK,Strong
2,IKBKB,Weak
3,INSR,Strong
4,KDR(VEGFR2),Strong
5,LCK,Strong
6,LYNA,Weak
7,MAP2K1(MEK1),Negative
8,MAP2K2(MEK2),Negative
9,MAP4K5(KHS1),Negative
10,MAPK1(ERK2),Strong
11,MAPK3(ERK1),Strong
12,MAPKAPK2,Strong
13,MLCK,Negative
14,MST4,Negative
15,NEK6,Negative
16,NEK7,Negative
17,NTRK1,Strong
18,NTRK2,Strong
19,NTRK3,Strong
20,PHKG1,Negative
21,PIM1,Strong

row,Compound,MBP Kinase Activity
1,PIM2,Weak
2,PKN1(PRK1),Strong
3,PLK1,Negative
4,PRKCA,Strong
5,PRKCB1,Strong
6,PRKCB2,Strong
7,PRKCD,Strong
8,PRKCG,Strong
9,PRKCI,Strong
10,PRKCQ,Strong
11,PTK6(BRK),Strong
12,RPS6KA3(RSK2),Strong
13,RPS6KA5(MSK1),Weak
14,STK6(AuroraA),Weak
15,STK24(MST3),Weak
16,STK25(YSK1),Strong
17,TBK1,Strong
18,WEE1,Negative
19,YES1,Weak

# Tested on: 39 kinases (Table 4)
# Assay: not given
# Details: known general specificities of the inhibitors; cited from earlier work
row,Compound,General Specificity
1,Oc1ccc(-c2nc(-c3ccncc3)c(-c3ccc(F)cc3)[nH]2)cc1 [SB 202190],Serine/threonine
